Measurements: paper PMC4164784, “4E-BPs require non-canonical 4E-binding motifs and a lateral surface of eIF4E to repress translation” (Nature Communications, 2014)
No end group written: not given here.

Target: T1, eIF4E–eIF4G complex (eIF4E WT; eIF4G residues 578–650) (Drosophila melanogaster, UniProt P48598)
T1 construct: full-length eIF4E (WT or the II-AA mutant) containing an N-terminal SNH-tag was coexpressed; made in house; host or cells: E. coli BL21 Star (DE3), coexpression
T1 sequence (P48598 1-248 isoform P48598-2): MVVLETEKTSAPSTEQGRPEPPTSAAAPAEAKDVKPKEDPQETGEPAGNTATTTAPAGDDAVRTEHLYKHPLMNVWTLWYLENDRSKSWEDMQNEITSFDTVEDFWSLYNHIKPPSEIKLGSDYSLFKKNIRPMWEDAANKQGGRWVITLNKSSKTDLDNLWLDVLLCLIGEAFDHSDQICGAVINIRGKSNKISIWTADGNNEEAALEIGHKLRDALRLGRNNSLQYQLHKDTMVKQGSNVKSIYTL
Experiment: Competition assay, displacement of GST-eIF4G from preassembled eIF4E (WT)–eIF4G complexes
Assay type: biochemical
Details: for displacement of eIF4G from eIF4E WT–eIF4G complex (in words): 2–20 μM GB1-fused competitor, Strep-Tactin pull down; for competition with eIF4G for eIF4E WT (in words): Fig. 5a,c, fivefold molar excess of MBP-tagged competitor, 30 min at 4 °C, m7GTP or Strep-Tactin pull down
Description: For the competition assays shown in Figs 5a,c and 6a,b, complexes containing SHN- or MBP-tagged eIF4E (WT or II-AA mutant) bound to GST-eIF4G (residues 578–650), GST-Thor (full length), GST-4E-T (residues 1–58) or GST-CUP (311–440) were obtained by coexpressing the corresponding proteins in E. coli BL21 (DE3) STAR cells (30 ml culture). The cells were resuspended in lysis buffer (5 ml) that was supplemented with EDTA-free protease inhibitor (Roche) and 1 mg ml^−1 lysozyme and lysed by sonication. The cleared lysates were incubated with 400 μl of Protino Glutathione Agarose 4B (Macherey-Nagel) for 1 h. The beads were washed three times with lysis buffer, and the proteins were eluted after 10 min of incubation with lysis buffer containing 25 mM L-glutathione. The protein complexes were stored at −20 °C or used in competition assays.
The purified recombinant complexes were mixed with excess amounts of the indicated purified competitor proteins (Fig. 5c) or with bacterial lysates expressing the competitor proteins (Figs 5a and 6) and incubated for 30 min at 4 °C. After incubation, 20 μl of immobilized γ-Aminophenyl-m^7GTP or Strep-Tactin Sepharose (IBA), were added to the samples and incubated for another 40 min at 4 °C. The beads were washed three times with lysis buffer and eluted with lysis buffer containing 2.5 mM desthiobiotin (Strep-Tactin Sepharose) or with 20 μl of SDS–PAGE loading buffer (Aminophenyl-m^7GTP beads). The proteins were analyzed by 10–15% SDS–PAGE followed by staining with Coomassie blue staining. […]

[1] = Fig. 4, 2 μM complex, 20 min at 4 °C, n=2

Row | Substance | displacement of eIF4G from eIF4E WT–eIF4G complex (in words) [1] | molar excess at which eIF4G was effectively displaced (Fig. 4, 2 μM complex, GB1-fused C+NC competitor, 20 min at 4 °C, n=2) | competition with eIF4G for eIF4E WT (in words)
1 | 4E-T C+NC: 4E-T residues 9–44, eIF4E-binding region short, C-terminal GB1 | displaced eIF4G from the complex and associated with eIF4E |  | 
2 | CUP C+NC: CUP residues 325–376, eIF4E-binding region short, C-terminal GB1 (KSYTRSRLMDIRNGMFNALMHRSKESFVMPRIATCDDIELEGRLRRMNIWRT-GB1; UniProt Q9VMA3 325-376, looked up, fragment) | displaced eIF4G from the complex and associated with eIF4E | two | efficiently displaced preassembled eIF4G
3 | Thor C+NC: Thor residues 50–83, eIF4E-binding region short, C-terminal GB1 (TKLIYERAFMKNLRGSPLSQTPPSNVPSCLLRGT-GB1; UniProt Q9XZ56 50-83, looked up, fragment) | displaced eIF4G from the complex and associated with eIF4E |  | 
4 | Thor C: Thor residues 50–63, canonical motif |  |  | abolished competition
